Measured values as given in patent US20190367631A1.

Tests used:
[1] = target: endogenously expressed human MSR1 on PMA-treated THP-1 cells (human) (UniProt P21757); assay: cell-based or functional assay
[2] = target: endogenously expressed human MSR1 on PMA-treated THP-1 cells (human) (UniProt P21757); assay: confocal imaging, differentiated THP-1 cells, Alexa 488 secondary
[3] = target: full length human MSR1 with a C-terminal Myc tag, on HEK293.Myc.hMSR1 cells (human) (UniProt P21757); assay: ECL cell binding, HEK293.Myc.hMSR1 cells, 11 nM
[4] = target: endogenously expressed human MSR1 on PMA-treated THP-1 cells (human) (UniProt P21757); assay: ECL cell binding, PMA-treated THP-1 cells, 11 nM
[5] = target: human MSR1 extracellular domain expressed with a N-terminal nonahistidine tag (human) (UniProt P21757); assay: competition ELISA, plate-coated His9-hMSR1; 100 nM control antibody, competitor ligand Ac-LDL
[6] = target: human MSR1 extracellular domain expressed with a N-terminal nonahistidine tag (human) (UniProt P21757); assay: competition ELISA, plate-coated His9-hMSR1; 1 µM control antibody, competitor ligand 10 nM Ox-LDL
[7] = target: human MSR1 extracellular domain expressed with a N-terminal nonahistidine tag (human) (UniProt P21757); assay: competition ELISA, plate-coated His9-hMSR1; 300 nM control antibody, competitor ligand biot-AGE-BSA

human MSR1 extracellular domain expressed with a N-terminal nonahistidine tag (human), sequence (P21757 other isoform, or with tags, fused parts or gaps): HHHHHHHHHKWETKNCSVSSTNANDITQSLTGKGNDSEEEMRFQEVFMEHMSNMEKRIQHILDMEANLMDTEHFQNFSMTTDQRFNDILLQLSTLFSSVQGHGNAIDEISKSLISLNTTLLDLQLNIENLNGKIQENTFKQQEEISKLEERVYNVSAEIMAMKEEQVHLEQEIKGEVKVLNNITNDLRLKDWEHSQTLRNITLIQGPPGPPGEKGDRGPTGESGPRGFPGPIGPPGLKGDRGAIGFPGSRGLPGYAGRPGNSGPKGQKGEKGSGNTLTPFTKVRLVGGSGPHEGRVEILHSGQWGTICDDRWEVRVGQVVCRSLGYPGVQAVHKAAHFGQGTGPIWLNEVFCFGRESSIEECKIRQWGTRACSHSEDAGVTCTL
endogenously expressed human MSR1 on PMA-treated THP-1 cells (human), sequence (P21757 whole entry, the tested form may be a part): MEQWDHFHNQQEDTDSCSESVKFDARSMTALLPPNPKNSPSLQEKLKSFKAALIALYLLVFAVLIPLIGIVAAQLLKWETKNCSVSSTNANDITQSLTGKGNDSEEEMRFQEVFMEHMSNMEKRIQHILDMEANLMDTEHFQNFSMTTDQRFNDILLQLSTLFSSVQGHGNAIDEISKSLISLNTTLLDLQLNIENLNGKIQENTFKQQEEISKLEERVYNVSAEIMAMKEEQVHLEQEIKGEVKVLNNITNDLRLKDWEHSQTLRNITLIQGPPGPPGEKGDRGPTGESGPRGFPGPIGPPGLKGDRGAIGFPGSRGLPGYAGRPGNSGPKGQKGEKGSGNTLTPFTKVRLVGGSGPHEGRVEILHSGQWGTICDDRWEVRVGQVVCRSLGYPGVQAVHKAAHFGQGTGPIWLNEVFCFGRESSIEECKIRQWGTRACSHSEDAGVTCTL
full length human MSR1 with a C-terminal Myc tag, on HEK293.Myc.hMSR1 cells (human), sequence (P21757 whole entry): as the sequence (P21757 whole entry, the tested form may be a part) above

| Substance | ratio of binding signal (RLU) to isotype control [3] [fold] | ratio of binding signal (RLU) to isotype control [4] [fold] | % Blocking [5] [%] | % Blocking [6] [%] | % Blocking [7] [%] | also measured |
| --- | --- | --- | --- | --- | --- | --- |
| Isotype control (antibody) | – | – | – | – | – | Total Internalized RFU [1]: 1.7e+06 RFU; Total Binding at 4° C. (RFU) [2]: 186000 RFU; Total Binding at 37° C. (RFU) [2]: 1.09e+06 RFU |
| hIgG1 isotype control (antibody) | – | – | -8 | 3 | 4 | – |
| mIgG1 isotype control (antibody) | – | – | -4 | 16 | 7 | – |

Second part, led by results:

| ratio of binding signal (RLU) to isotype control [3] [fold] | ratio of binding signal (RLU) to isotype control [4] [fold] | % Blocking [5] [%] | % Blocking [6] [%] | % Blocking [7] [%] | Substance | also measured |
| --- | --- | --- | --- | --- | --- | --- |
| 1 | 1 | – | – | – | hIgG1 Isotype Control (antibody) | – |
| 1 | 1 | – | – | – | mIgG Isotype Control (antibody) | – |
